Laboratory results as given in US20240148895A1 (EISAI R AND D MANAGEMENT, published 2024).

Tests used:
[1] = biological target: T1, human CEACAM6 expressed on Pan02/Pgp-KO/hCEACAM6 cells (human, UniProt P40199 35-320); test: flow cytometry sorting ([..] II) of Pan02 cells transfected with human CEACAM6
T1 construct: also called carcinoembryonic antigen-related cell adhesion molecule 6; CD66c
T1 sequence: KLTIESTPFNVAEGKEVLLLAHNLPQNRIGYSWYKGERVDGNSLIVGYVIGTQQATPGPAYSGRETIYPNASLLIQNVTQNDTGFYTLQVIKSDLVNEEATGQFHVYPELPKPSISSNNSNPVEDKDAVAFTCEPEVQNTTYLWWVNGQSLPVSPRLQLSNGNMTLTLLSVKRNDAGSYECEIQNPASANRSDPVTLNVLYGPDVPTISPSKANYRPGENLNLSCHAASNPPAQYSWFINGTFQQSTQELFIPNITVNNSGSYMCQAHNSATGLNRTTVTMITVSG
Source text: The mouse pancreatic cancer cell line Pan02 (National Institutes of Health) was transfected with recombinant Cas9 protein (Alt-R S.p. HiFi Cas9 V3, Integrated DNA Technologies), and mouse Abcb1a and single guided RNA (Aft-R CRISPR sgRNA, Integrated DNA Technologies) for Abcb1b, using a NEPA21 Super Electroporator (Nepa Gene). The obtained cells were further transfected with human CEACAM6 using pLV[Exp]-Puro-EFS lentiviral vector (VectorBuilder) and MISSION Lentiviral Packaging Mix (Sigma-Aldrich). […] The established cells were designated as cell line Pan02/Pgp-KO/hCEACAM6, and were maintenance cultured in a 5% CO₂ incubator (37° C.) using RPMI (FujiFilm-Wako Pure Chemical Industries) containing 10% fetal bovine serum (FBS: SIGMA 173012) and penicillin/streptomycin (FujiFilm-Wako Pure Chemical Industries) (hereunder referred to simply as “culture medium”).

[2] = biological target: T2, human CEACAM6 extracellular domain-SEAP-His protein (human); test: ELISA: FLAG-tagged scFv from E. coli supernatant captured on anti-FLAG antibody, 20 nM antigen, HRP-labeled anti-His antibody detection, absorbance at 450 nm
T2 chain: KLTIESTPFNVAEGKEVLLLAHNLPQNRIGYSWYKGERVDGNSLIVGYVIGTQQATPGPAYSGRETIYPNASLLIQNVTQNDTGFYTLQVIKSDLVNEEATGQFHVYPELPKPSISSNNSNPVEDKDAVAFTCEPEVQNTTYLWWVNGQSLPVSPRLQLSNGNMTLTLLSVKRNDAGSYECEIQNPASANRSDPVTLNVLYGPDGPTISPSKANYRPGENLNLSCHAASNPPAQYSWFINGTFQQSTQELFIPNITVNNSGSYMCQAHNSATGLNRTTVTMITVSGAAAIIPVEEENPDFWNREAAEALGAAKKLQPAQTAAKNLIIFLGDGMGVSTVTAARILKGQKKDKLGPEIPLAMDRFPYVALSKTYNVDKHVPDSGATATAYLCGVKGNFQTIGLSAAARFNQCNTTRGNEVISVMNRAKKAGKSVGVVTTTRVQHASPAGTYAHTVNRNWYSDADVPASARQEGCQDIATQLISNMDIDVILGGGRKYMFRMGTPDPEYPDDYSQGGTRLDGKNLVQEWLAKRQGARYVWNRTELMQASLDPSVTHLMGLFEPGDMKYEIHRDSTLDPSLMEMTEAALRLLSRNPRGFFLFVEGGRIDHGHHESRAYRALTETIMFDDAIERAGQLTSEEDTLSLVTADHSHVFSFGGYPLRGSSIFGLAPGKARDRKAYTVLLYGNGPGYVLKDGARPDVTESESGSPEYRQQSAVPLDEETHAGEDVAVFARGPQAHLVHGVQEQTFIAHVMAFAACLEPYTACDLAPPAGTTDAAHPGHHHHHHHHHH
Experimental: (§1) After the second panning procedure, a single colony from the concentrated phage-infected TG1 cells was transferred to culture medium on a 96-well plate. IPTG was added to induce expression of the FLAG-tagged scFv, and vibration culture was carried out overnight at 30° C. The TG1 cells were spinned down and the scFv-containing E. coli culture supernatant was used to pickup the wells that were reactive with human CEACAM6.
(§2) Reactivity with human CEACAM6 was evaluated by ELISA according to the following procedure, using either human CEACAM6 extracellular domain-SEAP-His protein or human CEACAM6 extracellular domain-MBP-His protein. The wells of a 96-well plate (Nunc) were coated with anti-FLAG antibody (Sigma). After incubation overnight at 4° C., the wells were blocked with 2% skim milk (BD) for 2 hours at room temperature. After rinsing 3 times with 0.02% Tween20/PBS (Nacalai Tesque, Inc.), human CEACAM6 extracellular domain-SEAP-His protein or human CEACAM6 extracellular domain-MBP-His protein (final concentration: 20 nM) and E. coli culture supernatant containing scFv were added to each well and incubation was continued for 2 hours at room temperature. […] An equivalent of stopping solution (1N H₂SO₄, FujiFilm Wako Pure) was added to each well, and the absorbance at 450 nm was read off using a microplate reader (Thermo Scientific). […]

[3] = biological target: human CEACAM6 extracellular domain-MBP-His protein (human); test: as above
Experimental: as §1, §2

B1: antibody A (human anti-CEACAM6_#84.7 monoclonal antibody) (antibody, human IgG1, lambda, V domains shown)
VH: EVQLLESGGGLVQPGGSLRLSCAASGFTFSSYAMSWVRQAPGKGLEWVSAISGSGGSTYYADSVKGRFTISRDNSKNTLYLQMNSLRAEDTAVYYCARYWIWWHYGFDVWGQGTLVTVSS
VL: SSELTQDPAVSVALGQTVRITCQGDSLRSYYASWYQQKPGQAPVLVIYGKNNRPSGIPDRFSGSSSGNTASLTITGAQAEDEADYYCQSYYSSSHYVVFGGGTKLTVLG
notes: The heavy chain constant region is human IgG1/2m: IgG1 CH1 and hinge, IgG2 CH2 and CH3 with V234A and G237A (Eu numbering); The light chain constant region is human Ig lambda
binding result [1]: binds

B2: human antibody fragment (scFv) specifically binding to human CEACAM6, from which antibody A was designed (scFv, V domains shown)
VH: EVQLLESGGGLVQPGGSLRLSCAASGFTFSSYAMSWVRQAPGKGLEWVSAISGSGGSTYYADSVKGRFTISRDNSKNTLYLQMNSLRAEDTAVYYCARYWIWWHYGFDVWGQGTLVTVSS
VL: SSELTQDPAVSVALGQTVRITCQGDSLRSYYASWYQQKPGQAPVLVIYGKNNRPSGIPDRFSGSSSGNTASLTITGAQAEDEADYYCQSYYSSSHYVVFGGGTKLTVL
notes: Tested as a single-chain FLAG-tagged scFv in E. coli culture supernatant; also called FLAG-tagged scFv
binding result [2]: binds
binding result [3]: binds
